The subject of the data set is 151AmF-GFP (azide-exposed GFP, protein part of RGG/DGG) (synthetic (codon-optimized GFP, expressed in E. coli NiCo21(DE3))). The data set is described as follows: EMSA (SDS-PAGE gel shift). As to conditions: clicked to AmF-GFP, 59 pmol GFP + 59 pmol guide, SPAAC at 4 C for 1.5 h, then equal volume of target, 20 min at room temperature, 15% SDS-PAGE, protein stored in 50 mM HEPES …. (In EMSA bound probe runs differently from free probe, usually more slowly.)

Take “TAACCCTAACCCTAACCCTAACCCTA / GCUAGAUCCGUAGGGUUAGGGUUAGGGUUAGGGUUAACCUCCGACC [Tel26-DBCO-DNA guide + Target RNA [Tel26]]”: the binding signal (DGG (covalent DNA guide), DBCO on guide DNA) is 86 % bound.

For the sequence “UAACCCUAACCCUAACCCUAACCCUA / GCUAGAUCCGUAGGGUUAGGGUUAGGGUUAGGGUUAACCUCCGACC [Tel26-DBCO-RNA guide + Target RNA [Tel26]]”, the binding signal (RGG (covalent RNA guide), DBCO on guide RNA) was found to be 88 % bound.
